We go through 11 variants from IntAct's records for PubMed 31515488.

First the molecules themselves.
B1: Defensin-6 (Homo sapiens), Q01524 (parent)
chain: MRTLTILTAVLLVALQAKAEPLQAEDDPLQAKAYEADAQEQRGANDQDFAVSFAEDASSSLRALGSTRAFTCHCRRSCYSTEYSYGTCTVMGINHRFCCL
B2: N-acetyltransferase 8 (Homo sapiens), Q9UHE5 (parent)
chain: MAPCHIRKYQESDRQWVVGLLSRGMAEHAPATFRQLLKLPRTLILLLGGPLALLLVSGSWLLALVFSISLFPALWFLAKKPWTEYVDMTLCTDMSDITKSYLSERGSCFWVAESEEKVVGMVGALPVDDPTLREKRLQLFHLFVDSEHRRQGIAKALVRTVLQFARDQGYSEVILDTGTIQLSAMALYQSMGFKKTGQSFFCVWARLVALHTVHFIYHLPSSKVGSL
partner: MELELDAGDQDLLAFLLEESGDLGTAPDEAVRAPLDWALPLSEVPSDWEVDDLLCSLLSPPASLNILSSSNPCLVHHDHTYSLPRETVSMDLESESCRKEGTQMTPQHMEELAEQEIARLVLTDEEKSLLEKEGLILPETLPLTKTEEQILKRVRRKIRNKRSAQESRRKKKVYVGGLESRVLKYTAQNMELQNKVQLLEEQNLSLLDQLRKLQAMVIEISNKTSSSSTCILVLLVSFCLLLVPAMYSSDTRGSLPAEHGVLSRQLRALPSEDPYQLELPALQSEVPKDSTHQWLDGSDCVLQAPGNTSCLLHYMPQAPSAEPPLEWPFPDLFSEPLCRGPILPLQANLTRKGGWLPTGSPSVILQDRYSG
B3: Caspase recruitment domain-containing protein 9 (Homo sapiens), Q9H257 (parent)
chain: MSDYENDDECWSVLEGFRVTLTSVIDPSRITPYLRQCKVLNPDDEEQVLSDPNLVIRKRKVGVLLDILQRTGHKGYVAFLESLELYYPQLYKKVTGKEPARVFSMIIDASGESGLTQLLMTEVMKLQKKVQDLTALLSSKDDFIKELRVKDSLLRKHQERVQRLKEECEAGSRELKRCKEENYDLAMRLAHQSEEKGAALMRNRDLQLEIDQLKHSLMKAEDDCKVERKHTLKLRHAMEQRPSQELLWELQQEKALLQARVQELEASVQEGKLDRSSPYIQVLEEDWRQALRDHQEQANTIFSLRKDLRQGEARRLRCMEEKEMFELQCLALRKDSKMYKDRIEAILLQMEEVAIERDQAIATREELHAQHARGLQEKDALRKQVRELGEKADELQLQVFQCEAQLLAVEGRLRRQQLETLVLSSDLEDGSPRRSQELSLPQDLEDTQLSDKGCLAGGGSPKQPFAALHQEQVLRNPHDAGLSSGEPPEKERRRLKESFENYRRKRALRKMQKGWRQGEEDRENTTGSDNTDTEGS
partner: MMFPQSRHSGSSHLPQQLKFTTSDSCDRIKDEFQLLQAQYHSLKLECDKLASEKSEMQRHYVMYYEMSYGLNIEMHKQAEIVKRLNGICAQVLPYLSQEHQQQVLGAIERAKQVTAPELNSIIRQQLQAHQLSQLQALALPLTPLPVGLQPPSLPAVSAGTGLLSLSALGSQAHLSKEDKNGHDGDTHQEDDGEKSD
B4: Glycodelin (Homo sapiens), P09466 (parent)
chain: MLCLLLTLGVALVCGVPAMDIPQTKQDLELPKLAGTWHSMAMATNNISLMATLKAPLRVHITSLLPTPEDNLEIVLHRWENNSCVEKKVLGEKTENPKKFKINYTVANEATLLDTDYDNFLFLCLQDTTTPIQSMMCQYLARVLVEDDEIMQGFIRAFRPLPRHLWYLLDLKQMEEPCRF
partner: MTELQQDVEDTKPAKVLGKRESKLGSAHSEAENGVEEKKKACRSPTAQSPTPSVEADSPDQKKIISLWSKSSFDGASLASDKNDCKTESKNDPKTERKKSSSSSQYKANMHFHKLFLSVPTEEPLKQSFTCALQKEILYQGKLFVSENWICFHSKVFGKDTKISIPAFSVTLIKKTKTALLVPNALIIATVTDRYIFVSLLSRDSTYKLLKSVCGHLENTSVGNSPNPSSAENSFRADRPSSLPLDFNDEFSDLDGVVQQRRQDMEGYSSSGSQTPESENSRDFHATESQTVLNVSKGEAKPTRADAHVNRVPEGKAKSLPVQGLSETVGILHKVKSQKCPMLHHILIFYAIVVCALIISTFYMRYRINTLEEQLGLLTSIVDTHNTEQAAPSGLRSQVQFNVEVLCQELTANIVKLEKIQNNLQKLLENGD
B5: WASH complex subunit 3 (Homo sapiens), Q9Y3C0 (parent)
chain: MDEDGLPLMGSGIDLTKVPAIQQKRTVAFLNQFVVHTVQFLNRFSTVCEEKLADLSLRIQQIETTLNILDAKLSSIPGLDDVTVEVSPLNVTSVTNGAHPEATSEQPQQNSTQDSGLQESEVSAENILTVAKDPRYARYLKMVQVGVPVMAIRNKMISEGLDPDLLERPDAPVPDGESEKTVEESSDSESSFSD
partner: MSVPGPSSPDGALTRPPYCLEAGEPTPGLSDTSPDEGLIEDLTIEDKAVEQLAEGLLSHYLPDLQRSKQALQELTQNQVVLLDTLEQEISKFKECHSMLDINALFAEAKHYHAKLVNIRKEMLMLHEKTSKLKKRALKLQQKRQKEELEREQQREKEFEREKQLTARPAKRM
B6: Protein LDOC1 (Homo sapiens), O95751 (parent)
chain: MVDELVLLLHALLMRHRALSIENSQLMEQLRLLVCERASLLRQVRPPSCPVPFPETFNGESSRLPEFIVQTASYMLVNENRFCNDAMKVAFLISLLTGEAEEWVVPYIEMDSPILGDYRAFLDEMKQCFGWDDDEDDDDEEEEDDY
partner: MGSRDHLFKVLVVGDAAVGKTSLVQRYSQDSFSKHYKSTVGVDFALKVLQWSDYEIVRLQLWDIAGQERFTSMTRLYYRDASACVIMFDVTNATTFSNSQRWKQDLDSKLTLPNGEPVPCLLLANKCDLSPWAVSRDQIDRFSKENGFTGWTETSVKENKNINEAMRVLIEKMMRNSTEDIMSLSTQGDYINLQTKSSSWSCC
B7: Notch homolog 2 N-terminal-like protein A (Homo sapiens), Q7Z3S9 (parent)
chain: MCVTYHNGTGYCKCPEGFLGEYCQHRDPCEKNRCQNGGTCVAQAMLGKATCRCASGFTGEDCQYSTSHPCFVSRPCLNGGTCHMLSRDTYECTCQVGFTGKECQWTDACLSHPCANGSTCTTVANQFSCKCLTGFTGQKCETDVNECDIPGHCQHGGTCLNLPGSYQCQCLQGFTGQYCDSLYVPCAPSPCVNGGTCRQTGDFTFECNCLPETVRRGTELWERDREVWNGKEHDEN
partner: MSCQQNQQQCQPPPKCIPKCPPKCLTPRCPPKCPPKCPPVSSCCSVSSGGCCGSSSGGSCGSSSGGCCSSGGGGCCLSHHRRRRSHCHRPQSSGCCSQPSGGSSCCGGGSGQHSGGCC
B8: Notch homolog 2 N-terminal-like protein A (Homo sapiens), Q7Z3S9 (parent)
chain: B7 chain
partner: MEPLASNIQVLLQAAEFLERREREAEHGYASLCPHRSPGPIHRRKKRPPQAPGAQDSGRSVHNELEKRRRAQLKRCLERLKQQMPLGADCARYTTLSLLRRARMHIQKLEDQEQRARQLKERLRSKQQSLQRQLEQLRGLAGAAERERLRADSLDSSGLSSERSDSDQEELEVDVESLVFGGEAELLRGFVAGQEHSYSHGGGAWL

In the first assay the parent is B1. The note with it: with ubql1_human UBQLN1, Q9UMX0.
Sequence of ubql1_human UBQLN1, Q9UMX0 (Q9UMX0 whole entry): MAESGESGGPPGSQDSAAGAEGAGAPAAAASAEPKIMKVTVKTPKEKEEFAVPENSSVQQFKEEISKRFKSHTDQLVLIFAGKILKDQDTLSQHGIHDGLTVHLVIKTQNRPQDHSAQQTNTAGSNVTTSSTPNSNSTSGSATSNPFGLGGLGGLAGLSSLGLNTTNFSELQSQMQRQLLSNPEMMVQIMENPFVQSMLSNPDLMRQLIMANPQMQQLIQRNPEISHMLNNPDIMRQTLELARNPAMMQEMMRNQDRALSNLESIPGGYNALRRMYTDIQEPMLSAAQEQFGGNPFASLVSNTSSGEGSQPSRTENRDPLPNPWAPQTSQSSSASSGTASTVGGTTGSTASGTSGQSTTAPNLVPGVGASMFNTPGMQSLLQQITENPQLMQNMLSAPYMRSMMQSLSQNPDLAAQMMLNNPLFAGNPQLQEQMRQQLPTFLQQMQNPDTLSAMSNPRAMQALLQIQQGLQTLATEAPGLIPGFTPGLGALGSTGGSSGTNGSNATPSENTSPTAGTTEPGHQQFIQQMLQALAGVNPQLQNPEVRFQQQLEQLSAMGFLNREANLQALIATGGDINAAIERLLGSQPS
Take E35D: the “effect of a mutation on the interaction” value is “with no effect”.
Turning to D46E, the “effect of a mutation on the interaction” value is “with no effect”.

The variants in another assay derive from B2. To be noted: with creb3_human CREB3, O43889.
As to F143S, the “effect of a mutation on the interaction” value is “with no effect”.

In the next assay the parent is B3. The note with it: with tle5_human TLE5, Q08117.
With R173H, the “effect of a mutation on the interaction” value is recorded as “with no effect”.

Variants of B4 are the subject of another assay. The note with it: with grm2b_human GRAMD2B.
Regarding Q126K, the “effect of a mutation on the interaction” value is “with no effect”.

In another assay the parent is B5. The note with it: with bl1s6_human BLOC1S6, Q9UL45.
Regarding F44L, the “effect of a mutation on the interaction” value is listed as “with no effect”.

In a further assay the parent is B6. To be noted: with rab7l_human RAB29, O14966.
In the case of L12H, the “effect of a mutation on the interaction” value was “disrupting interaction strength”.

In a further assay the parent is B7. To be noted: with lce1b_human LCE1B.
For A115T, the “effect of a mutation on the interaction” value is on record as “with no effect”.
On to R74Q, for which the “effect of a mutation on the interaction” value is given as “with no effect”.

In another assay the parent is B8. To be noted: with mad3_human MXD3, Q9BW11.
Consider A115T, for which the “effect of a mutation on the interaction” value was “with no effect”.
Consider R74Q, for which the “effect of a mutation on the interaction” value is “with no effect”.
